Results published in the nanobody polyreactivity screen of Harvey et al. (2022).

test: yeast display, Sf9 membrane polyspecificity reagent, FACS + sequencing; frameworks hold sequencing errors
Method in brief: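 Galactose-induced (36–48 hours) yeast carrying a synthetic nanobody display library were exposed to 10% biotinylated, detergent-solubilized Sf9 membrane reagent at 4 °C for 1 hour. FACS followed streptavidin microbead enrichment, using low and high (top ~1%) gates for expression (anti-HA) and reagent binding (streptavidin). Colony PCR, MiSeq 2 × 250 sequencing and CDR-length filtering followed. Labels for polyreactivity reflect the gate of origin.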

| Sequence | polyreactivity (PSR sort gate) |
| --- | --- |
| QVQLVESGGGLVQAGGSRRLSCDASGRTFGYYAMGWYRQAPGKERELVAAISSSGGSTYYADSVKRRFTISRDNAKNTVYLQMNRLKPEDTAVYYCAADTSDTPDYYYWGPGTQVTVSS | low polyreactivity |
| QVQLVESGGGLVQAGGSRRLSWAASGFIFARNTMGWYRQAPGTERELVAAITKSGGSTYYADSVKGRFTISRDNAKNTVYLQMNILKPEDTAVYYCGARSYTLRGVYFSGYDYWGQGTQVTVSS | low polyreactivity |
| QVQLVESGGGLVQAGGSRSLSCAASGSTFYSYAMGWYRQAPGKERELVAAINWDGVSTYYADSVKGRFTISRDNAKNTVYLQMNSLKPEDTAVYYCAAELFSGYRISGTYYYWGQGTQVTVSS | low polyreactivity |
| QVQLVESGGGLVQAGGSVRLSCAASGLTFQRYAMGGYRQAPGKERELVASITGNGGSTYYADSVKGRFSISRDNAKNTVYLQMNSLKPEDTAVYYCNARRYVRTCQQPLYDYWGQGTQVTVSS | high polyreactivity |
| QVQLVESGGGLVQAGGSVRLSCAASGSIFQYNTMGWYRQAPGKDRELFADINGRGGSTYYADSVKGRFTISRDNAKNTVYLQMNSLKPEDTGVYYCNARVFGGYSKYLFIGRYYWGQGTQVTVSS | low polyreactivity |
| QVQLVESGGGLVQAGGTLRFSCAASGSILEYYTMGWDRQAPGKERELVAAISASGGNTYYADSVKGRFTISRANAKNTVYFQMNSLKPEDTAVYYCNAYYGPRGYGYWGQGTQVTVSS | high polyreactivity |
| QVQLVESGGGLVQAGGTLRISCAPSGRIFNTNAMRWYRQAPGKERELVAGITDSGDSTYYADSVKGRFTISRDNAKNTVYLQMISLKPEDTAVYYCATDPASPYIYDYWGQGTQVTVSS | low polyreactivity |
| QVQLVESGGGLVQAGGTLRLICAASGLTFGRYAMGWYRQAPGKERELVASISQRGGSTYYADSVKGRFTISRDNAKNTVYLQMNSLKPEDTAVYYCAARRYYRGEYDYWGQGTQVTVSS | low polyreactivity |
| QVQLVESGGGLVQAGGTLRLNSAASGRNFYDYAMRWYRQAPGKERELVASISGGGSTDYADSVKGRFTISRDNAKNTVDFQMNSLNPEDTAVYYCAAQYYLYRSRFDYWGQGTQVTVSS | high polyreactivity |
| QVQLVESGGGLVQAGGTLRLRCAASGRTFKDYAMGWYRQAPGKERELVAAISWSGGDTYYADSVKGRFTISRDNAKNTVYFQLNSLKPEDTAVYYCNADPSGVFFYSLEFDYWGQGTQVTVSS | low polyreactivity |
| QVQLVESGGGLVQAGGTLRLSCAASGGTFRRYAMGWYRQAPGKERELVAAISWTGGSTYYADSVKGRFTISRDNAKNTVYLQMNSLKPEDSAVYYCAAVGSSSSKGGYWGQGTQVTVSS | high polyreactivity |
| QVQLVESGGGLVQAGGTLRLSCAASGIIFDRNVMGWYRQAPGKERELVAAITRNGGNTYYADSVKGRFTISRDNAKNTVYLQLNSLKPEDTAVYYCNAKYWPFSRWYYFWGQRTQVTVSS | high polyreactivity |
| QVQLVESGGGLVQAGGTLRLSCAASGIIFLVNAMGWYRQAPGKERELVATITSGGSTYADSVKGRFTISRDNAKNTVYLQMNSLKPEDTAVYYCAAVRRRRNSYGYWGQGTQVTVSS | high polyreactivity |
| QVQLVESGGGLVQAGGTLRLSCAASGIIFNYYAMGWYRHAPGKERELVAAITRGGRTNYADSVKGRFTISRDNAKNTVYLQMNSLKPEDTAVYYCNAPAFYKYKSFYAHSGYDYWGQGTQVTVSS | high polyreactivity |
| QVQLVESGGGLVQAGGTLRLSCAASGITFYLNAMGWYRQAPGKERELVADITVSGGSTYYAVSVKGRFTISRDNVKNTVYLQMNSLKPEDTAVYYCAAKYSSGRVLFEHGYWGQGTQVTVSS | low polyreactivity |
| QVQLVESGGGLVQAGGTLRLSCAASGRIFGYNAMGWYRQAPGKERELVAVISTSGTIRYYADSVKGRFTISRVNAKNTVYLQMKSLKPEDTAVYYCAARYYQRANGFGYWGQGTQVTVSS | low polyreactivity |
| QVQLVESGGGLVQAGGTLRLSCAASGRIFTRYAMGWYRQAPGKERELVAAISYGGGVTYYADSVKGRFTISRDNAKNTVYLQMNSLKPEDTAVYYCATDDPLSQINEKGMDYWGQGTQVTVSS | low polyreactivity |
| QVQLVESGGGLVQAGGTLRLSCAASGRILPRNAMGWSRQAPGKERELVAGISSDGSTNYADSVKGRFTISRDNAKNSVYLQMNILKPEDTAVYYCAADGVYDPYVYGYWGQGTQVTVSS | low polyreactivity |
| QVQLVESGGGLVQAGGTLRLSCAASGRTFDTNAMAWYRQAPGKERELVASITWVGGSTYYADSVKGRFTISRDNAKNTVYLQMNSLKPEDTAVYYCNRDRVSGGKYNYWGQGSQVTVSS | low polyreactivity |
| QVQLVESGGGLVQAGGTLRLSCAASGRTFGFYAMGWYRQAPGKERELVAVITRGGYTSYADSVKGRFTISRDNAKNTVYLQMNSLKPEDTAVYYCAAGWHYWDHRYDYWGQGTQVTVSS | high polyreactivity |
| QVQLVESGGGLVQAGGTLRLSCAASGRTFLWNDMGWDRQAPGQERELVAAITGSDGTYADSVKGRFTISRDNAKNTVYLQMNSLKPEDNAVYYCAAETYWFFPWKYDYWGQGTQVTVSS | low polyreactivity |

| Sequence | polyreactivity (PSR sort gate) |
| --- | --- |
| QVQLVESGGGLVQAGGTLRLSCAASGRTLHGYAMGWYRQAPGKERELVASITWSGASTYYADSVKGRFTISRDNAKNTVYLQMNSLKPEDTAVYYCAADRSRYVRRRYGYWGQGTQVTVSS | high polyreactivity |
| QVQLVESGGGLVQAGGTLRLSCAASGSIFAGYAMGWYRQAPGKVRELVATITSGGSTNYADSVKGRFTISRDNAKNTVYLQMNSLKPEETAVYYCAADVEDSIATSYTCGEYVYWGQGTQVTVSS | low polyreactivity |
| QVQLVESGGGLVQAGGTLRLSCAASGSIFAVNAMGWYRQAPGKERELVAAISKRGGSTYYADSVKGRFTISRDNAKNTVYLQMNSLKPEDTAVYYCAARILVTYHRDYYYWGLGTQVTVSS | high polyreactivity |
| QVQLVESGGGLVQAGGTLRLSCAASGSIFGNNLMGWYRQAPGKERELVAAISWSGGKNYADSVKGRFTISRDNAKNTVYLEMHCLIPDDSAVYYCAALSVWSYYTYYYWGQGTQVTVSS | high polyreactivity |
| QVQLVESGGGLVQAGGTLRLSCAASGSTFGGYAMGLYRQAPGKERELVAAITWSGDTYYADSVKGRFTISRDNAKNSVYLQMNSLKPEDTAVYYCAAYSRVGPYRYAYWGQGTQVTVSS | high polyreactivity |
| QVQLVESGGGLVQAGGTLRLSCAASGSTFKYYAMGWYRQAPGKEREFVASINWSGVSTYYADSVKGRFTISRDNAKNTVYLQMNSLKPEDTAVYYCAARVRGKYDYWGQGTQVTVSS | high polyreactivity |
| QVQLVESGGGLVQAGGTLRLSCAASGSTFTGNAMGWYRQAPGKERELVAAITIGGSRTYYADSVKGRFTISRDNAKNTVYLQMNSLKPEDTAVYYCAATSRGTDYWGQGTQVTVSS | high polyreactivity |
| QVQLVESGGGLVQAGGTLRLSCAASGSTFYLYAMGWYRQAPGNERELVAAISSAGGSTYYADSVKGRFTISRVNAKNTVYLQMNSLKPEDTAVYYCTRDIRRRGNYWGQGTQVTVSS | high polyreactivity |
| QVQLVESGGGLVQAGGTLRLSCAASGYTFGVYFMGWYRHAPGKERELVAAISGSTYYADSVKGRFTISRDNAKNTVYLQMNSLKQEDTAVYYCAAESYFFSPRTREKFDYWGQGTQVTVSS | low polyreactivity |
| QVQLVESGGGLVQAGGTLRLSCAATGFTFYEYAMGWYRQAPGKERELVAGIRRSGDSTYYADSVKGRFTISRDNAKNTVYLQMNILKPEDTAVYYCAKGWYRIKRNDYWGQGTQVTVSS | low polyreactivity |
| QVQLVESGGGLVQAGGTLRLSSAASGSIFYRNAMGWYRQAPGKERELVDSITSGGLTNYADSVKGRFTISRDNAKNTVYLHMFSLKPEETAVYYCARGRASYTKSGPTPYTGYGYWGQGTQVTVSS | low polyreactivity |
| QVQLVESGGGLVQAGRSHRLSCAASGFTFAPNAMGWYRQAPGKERELVARIDRAGSTYYADSVKGRFTISRDNAKNTVYLQMNSLKPEVTAVYYCAVVAVLSRPYATKFDYWGQGTQVTVSS | low polyreactivity |
| QVQLVESGGGLVQAGRSHRLSCAASGSIFPVYVMGWYRQAPGKERELVAAISQSSGGTYYADSVKGRFTISRDNATITVYLQMNSLKPEDTAVYYCAARITAIQGQRYYWGQGTQVTVSS | high polyreactivity |
| QVQLVESGGGLVQAGRSLRLICAASGLILFYNAMGWYRQPPGKERELVAVITSGGRTYYADSVKGRFTISRDNAKNTVYLQMNSLKPEDTAVYFCAATYGHPTSYGDGWRYGYWGQGTQVTVSS | low polyreactivity |
| QVQLVESGGGLVQAGRSLRLSCAASGFTFETYAMGWYRQAPGKERELVAAISDGGGDTYYADSVKGRFTISRDNAKNTVYLLMNSLKPEDSAVYYCAAEWDGNWSRGAGGYDYWGQGTQVTVSS | low polyreactivity |
| QVQLVESGGGLVQAGRSLRLSCAASGFTFRGYAMGWYRQAPGKERELVAAISVRGDSTYYADSVKGRFTISRDNAKNTVYLQMNSLKPEDTAVYYCNAALLGKQYYSNPNYDYWGQGTQVTVSS | high polyreactivity |
| QVQLVESGGGLVQAGRSLRLSCAASGITFKLYAMGWYRQAPGKERELVARLSLRGGNTYYADSVKVRFTISRDNAKTTVYLQMNSQNPEDTAVYYCNADLYRQYASRYHYWGQGSQVTVSS | high polyreactivity |
| QVQLVESGGGLVQAGRSLRLSCAASGITLYNYAMGWYRQAPGKERELVAAISLSGGRTYYADSVKGRFTISRDNAKNTVYLQMYSLKPEDTAVYYCAADWLNSDPYNYWGQGTQVTVSS | low polyreactivity |
| QVQLVESGGGLVQAGRSLRLSCAASGNTLRPNGMGWYRPAPGKERELVAAISSGGSTYYADSVKGRFTISRDNAKNTVYLQMNSLKPEDTAVYYCAAEYWYDYWGQGTQVTVSS | low polyreactivity |
| QVQLVESGGGLVQAGRSLRLSCAASGRIFISYTMGWYRPAPGKERELVAGIDSSGTSTYYADSVKGRFTISRDYAKNTVYLQMNSLIPEDTAVYYCNVVGNWKDTSTELDYWGQGTQVTVSS | low polyreactivity |
